Assay results reported in patent US20120045393A1 (priority 2009, published 2012).
Where two headings read alike, the source gives them in different places. Non-standard residues stand in square brackets, D forms with d. Residues, ends and D or L forms follow the SMILES beside them. Primed or numbered codes have the meaning given here. *: point of attachment. DO3A10CM(3) = metal chelator group attached at the N-terminus (X in table rows); DO3A10CM″ = chelating group at the N-terminus (X in the sequence tables); X1 = NC(=O)NNC(=O)[C@@H]1CCCN1C[C@H](Cc1ccc(C(=O)c2ccccc2)cc1)N*; DOTA = O=C(O)CN1CCN(CC(=O)O)CCN(CC(=O)*)CCN(CC(=O)O)CC1; Bpa = N[C@@H](Cc1ccc(C(=O)c2ccccc2)cc1)C(=O)O; d1Nal = N[C@H](Cc1cccc2ccccc12)C(=O)O; d2Nal = N[C@H](Cc1ccc2ccccc2c1)C(=O)O; d3Pal = N[C@H](Cc1cccnc1)C(=O)O; His(1-Me) = 1-methylhistidine; DO3A10CM = not defined here; Bpa4 = non-natural residue; Amfe4 = not defined here; Bzgly = not defined here; Hpgly = not defined here; dCfe4 = not defined here; Afe4 = not defined here; azaGly = NNC(=O)O; Sar = CNCC(=O)O

B1: BRU-2696 (peptide)
peptide: XXHWSHXWXPX
modifications: as printed: DO3A10CM-Gly-Abz4-Sar-His-Trp-Ser-His-Darg-Trp-Bpa4-Pro-azaGly-NH2 (Gly-Abz4 is the linker)
B2: BRU-2644 (peptide)
peptide: {DO3A10CM(3)}-G[d2Nal][dCfe4][d3Pal]SH[dR]WYP[dA]-NH2
modifications: reading uncertain; also: printed as DO3A10CM-Gly-Dnal2-Dcfe4-Dpal3-Ser-His-Darg-Trp-Tyr-Pro-Dala-NH2
B3: BRU-2812 (peptide)
peptide: DO3A10CM-[d2Nal][Afe4]WSH[dR]W[Bpa]P[azaGly]-NH2
modifications: reading uncertain; also: printed as DO3A10CM-Dnal2-Afe4-Trp-Ser-His-Darg-Trp-Bpa4-Pro-azaGly-NH2

How the values were obtained:
[1] = In vitro metabolic stability in mouse liver homogenate at 37° C.; format: in vitro ADME; conditions: for remaining at 1 h, 0.3 mg/mL: female, Tac:NCr:Foxn1nu/nu, mouse, tissue homogenate, pH 7.2
Protocol: Livers from 10 female Tac:NCr:Foxn1^nu/nu mice were excised, rinsed with ice cold PBS (no Ca^++ or Mg^++) and weighed. The tissues were minced with scissors in Petri dishes on ice with Tris buffered saline (Pierce BupH™ Tris buffered saline packs, #28376; 25 mM Tris, 150 mM NaCl, pH 7.2). After mincing, the tissues were dounce homogenized, and the total volume adjusted with ice cold Tris buffer (4 mL for every gram of excised tissue). The homogenate was centrifuged at ˜4000×g for 10 min at 4° C. The supernatants were aliquoted into Eppendorf tubes on ice (200 and 100 μl volumes) and stored at −80° C. Kidney homogenates were similarly prepared. […] The mixture was centrifuged at 4° C. for 20 min at 20,000×g to precipitate the protein; 10 μL (˜7.6 μCi) of the supernatant was injected into the HPLC for the analysis. […] Peaks at these retention times were also observed in the in vivo plasma sample (FIG. 1). […] After 0 and 60 min, the sample was removed from the incubator, immediately cooled on ice and 2 μL of 10 mM EDTA and 0.2 mL of ice-cooled MeOH were added, mixing after each addition. The proteins in the sample were separated by centrifugation at 14,000 rpm for 20 min. The supernatant was harvested and, in the samples spiked with the ^177Lu-analog, the radioactivity was measured using a Capintec dose calibrator to determine recovery. The sample was then analyzed by HPLC. […] After 0 and 60 min, the sample was removed from the incubator, immediately cooled on ice and 2 μL of 10 mM EDTA and 0.24 mL of ice-cooled methanol was added, mixing after each addition. The proteins in the sample were separated by centrifugation at 14,000 rpm for 20 min. The supernatant was collected and analyzed by LC/MS as described earlier herein.

[2] = system: EFO-27 human ovarian cancer cells (LHRH binding sites); assay: Direct binding/uptake of 177Lu-labeled LHRH-II analogs to EFO-27 cells; conditions: 177Lu-labeled analog, single concentration
Protocol: All reagents and chemicals were obtained from Sigma unless otherwise specified. LHRH analogs and ^177Lu-LHRH-II analogs were prepared by in-house chemists, as described elsewhere in the application. ^177Lu-LHRH-II analogs were not HPLC purified, as they had been prepared using formulation conditions that yielded high RCP without the need for purification. […] The HPLC-purified material was taken in a stabilizing buffer containing 5% lactose, 0.1% L-cysteine hydrochloride and 800 KIU/mL aprotinin and received as a lyophilized product and stored at −70° C. This was reconstituted in distilled water, aliquoted and stored at −70° C. The radioactivity was determined using Microplate Scintillation counter (Wallac Microbeta Trilux).
For the binding assay, EFO-27 cells were seeded onto 96-well clear flat-bottom tissue-culture-treated plates at 15,000/well density in the growth medium and used for assay on day 2 post-seeding. Cells were routinely checked for confluence and contamination and cell count was done occasionally to ensure consistency in cell numbers.
Direct Binding: Direct binding studies were carried out by incubating appropriate ^177Lu-labeled compounds with EFO-27 cells at 4° C. for 1 h followed by washing off the unbound radioactivity. Non-specific binding was determined by incubating the ^177Lu-LHRH-II analogs in the presence of a large excess (30 uM) of cold (unlabeled) LHRH-II analogs. A 96-well plate format was used.

[3] = system: LHRH binding sites on human ovarian cancer cells (EFO-27);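 note: Cell-associated radioactivity on confluent EFO-27 monolayers in 96-well plates, measured by microplate scintillation counting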
[4] = molecular target: LHRH binding sites on EFO-27 human ovarian cancer cells (human); assay: competition with [125I-Tyr8]BRU-2477 on EFO-27 cells
[5] = molecular target: LHRH receptor (LHRH binding sites) on EFO-27 human ovarian cancer cells (human); assay: competition with [125I-Tyr8]BRU-2477 for binding to EFO-27 cells
[6] = molecular target: LHRH receptor (LHRH binding sites) on EFO-27 human ovarian cancer cells (human); assay: as above; remark: listed apart in the source
[7] = molecular target: LHRH receptor (LHRH binding sites) on EFO-27 human ovarian cancer cells (human); assay: competition with [125I-Tyr8]BRU-2477, EFO-27 cells

| Molecule | EC50 [4] [nM] | EC50 [5] [nM] | further results |
| --- | --- | --- | --- |
| N=C(N)NCCC[C@H](NC(=O)[C@@H](Cc1ccc2ccccc2c1)NC(=O)CN1CCN(CC(=O)O)CCN(CC(=O)O)CCN(CC(=O)O)CC1)C(=O)N[C@@H](Cc1c[nH]c2ccccc12)C(=O)N[C@@H](CO)C(=O)N[C@@H](Cc1c[nH]cn1)C(=O)N[C@H](CCCNC(=N)N)C(=O)N[C@@H](Cc1c[nH]c2ccccc12)C(=O)N[C@@H](Cc1ccc(C(=O)c2ccccc2)cc1)CN1CCC[C@H]1C(=O)NNC(N)=O [Lu-BRU-3081] ({DOTA}-[d2Nal]RWSH[dR]W-X1) |  |  | remaining at 1 h, 0.3 mg/mL [1]: 100% |
| N=C(N)NCCC[C@H](NC(=O)[C@@H](Cc1ccc2ccccc2c1)NC(=O)CN1CCN(CC(=O)O)CCN(CC(=O)O)CCN(CC(=O)O)CC1)C(=O)N[C@@H](Cc1c[nH]c2ccccc12)C(=O)N[C@@H](CO)C(=O)N[C@@H](Cc1c[nH]cn1)C(=O)N[C@H](CCCNC(=N)N)C(=O)N[C@@H](Cc1c[nH]c2ccccc12)C(=O)N[C@@H](Cc1ccc(C(=O)c2ccccc2)cc1)C(=O)N1CSC[C@H]1C(N)=O [Lu-BRU-3072] |  |  | remaining at 1 h, 0.3 mg/mL ([1]; liver homogenate at 37° C. for 60 min, mean ± SD, n = 3, read-out: % remaining (% of parent remaining)): 98.5 ± 0.2%; Stabilized relative to parent? ([1]; liver homogenate at 37° C. for 60 min, compared to Lu-BRU-2813 or unstabilized peptide): Yes |
| N=C(N)NCCC[C@H](NC(=O)[C@@H](Cc1ccc2ccccc2c1)NC(=O)CN1CCN(CC(=O)O)CCN(CC(=O)O)CCN(CC(=O)O)CC1)C(=O)N[C@@H](Cc1c[nH]c2ccccc12)C(=O)N[C@@H](CO)C(=O)N[C@@H](Cc1c[nH]cn1)C(=O)N[C@H](CCCNC(=N)N)C(=O)N[C@@H](Cc1c[nH]c2ccccc12)C(=O)N[C@@H](Cc1ccc(C(=O)c2ccccc2)cc1)C(=O)N1C[C@H](N)C[C@H]1C(=O)NNC(N)=O [Lu-BRU-2995] |  |  | remaining at 1 h, 0.3 mg/mL [1]: 98.7 ± 0.1% |
| N=C(N)NCCC[C@H](NC(=O)[C@@H](Cc1ccc2ccccc2c1)NC(=O)CN1CCN(CC(=O)O)CCN(CC(=O)O)CCN(CC(=O)O)CC1)C(=O)N[C@@H](Cc1c[nH]c2ccccc12)C(=O)N[C@@H](CO)C(=O)N[C@@H](Cc1c[nH]cn1)C(=O)N[C@H](CCCNC(=N)N)C(=O)N[C@@H](Cc1c[nH]c2ccccc12)C(=O)N[C@@H](Cc1ccc(C(=O)c2ccccc2)cc1)C(=O)N1CCCC[C@H]1C(=O)NNC(N)=O [Lu-BRU-2996] |  |  | remaining at 1 h, 0.3 mg/mL [1]: 71.7 ± 2.9% |
| N=C(N)NCCC[C@H](NC(=O)[C@@H](Cc1ccc2ccccc2c1)NC(=O)CN1CCN(CC(=O)O)CCN(CC(=O)O)CCN(CC(=O)O)CC1)C(=O)N[C@@H](Cc1c[nH]c2ccccc12)C(=O)N[C@@H](CO)C(=O)N[C@@H](Cc1c[nH]cn1)C(=O)N[C@H](CCCNC(=N)N)C(=O)N[C@@H](Cc1c[nH]c2ccccc12)C(=O)N[C@@H](Cc1ccc(C(=O)c2ccccc2)cc1)C(=O)N1CC[C@H]1C(=O)NNC(N)=O [Lu-BRU-2993] |  |  | remaining at 1 h, 0.3 mg/mL [1]: 14.9 ± 13.2% |
| N=C(N)NCCC[C@@H](NC(=O)[C@H](Cc1c[nH]cn1)NC(=O)[C@H](CO)NC(=O)[C@H](Cc1c[nH]c2ccccc12)NC(=O)[C@H](Cc1c[nH]cn1)NC(=O)CN(CCc1ccc(O)cc1)C(=O)CNC(=O)CN1CCN(CC(=O)O)CCN(CC(=O)O)CCN(CC(=O)O)CC1)C(=O)N[C@@H](Cc1c[nH]c2ccccc12)C(=O)N[C@@H](Cc1ccc(C(=O)c2ccccc2)cc1)C(=O)N1CCC[C@H]1C(=O)NNC(N)=O [compound 2797] |  |  | 177Lu-LHRH II Direct binding % Bound [2]: 4.64%; EC50 ([3]; Table 8: N-substituted amino acid at position 1 and Gly as linker, in vitro binding on EFO-27 cells): 450 nM |
| N=C(N)NCCC[C@H](NC(=O)[C@@H](Cc1ccc2ccccc2c1)NC(=O)CN1CCN(CC(=O)O)CCN(CC(=O)O)CCN(CC(=O)O)CC1)C(=O)N[C@@H](Cc1c[nH]c2ccccc12)C(=O)N[C@@H](CO)C(=O)N[C@@H](Cc1c[nH]cn1)C(=O)N[C@H](CCCNC(=N)N)C(=O)N[C@@H](Cc1c[nH]c2ccccc12)C(=O)N[C@@H](Cc1ccc(C(=O)c2ccccc2)cc1)C(=O)N1CCC[C@H]1C(=O)NCCOCCN [compound 2968] |  |  | 177Lu-LHRH II Direct binding % Bound [2]: 23.5%; EC50 [3]: 240 nM |
| XHWSHXWXPX (as printed: DO3A10CM-Meala-His-Trp-Ser-His-Darg-Trp-Bpa4-Pro-azaGly-NH2) [BRU-2736] | 1420 | 1420 |  |
| XHWSHXWXPX (as printed: DO3A10CM-Sar-His-Trp-Ser-His-Darg-Trp-Nal2-Pro-azaGly-NH2) [BRU-2624] | 2010 | 2010 |  |
| XHWSHXWXPX (as printed: DO3A10CM-Sar-His-Trp-Ser-His-Darg-Trp-Cfe4-Pro-azaGly-NH2) [BRU-2725] | 2260 | 2260 |  |
| DO3A10CM-G[Bzgly]HWSH[dR]W[Bpa]P[azaGly]-NH2 (reading uncertain; also: printed as DO3A10CM-Gly-Bzgly-His-Trp-Ser-His-Darg-Trp-Bpa4-Pro-azaGly-NH2) [BRU-2792] | 2270 | 1800 |  |
| DO3A10CM-[Sar][Amfe4]WSH[dR]W[Bpa4]P[azaGly]-NH2 (reading uncertain; also: printed as DO3A10CM-Sar-Amfe4-Trp-Ser-His-Darg-Trp-Bpa4-Pro-azaGly-NH2) [BRU-2756] | 280 | 280 |  |
| XHWSHXWXPX (as printed: DO3A10CM-Sar-His-Trp-Ser-His-Darg-Trp-F5fe-Pro-azaGly-NH2) [BRU-2722] | 4620 | 4620 |  |
| B1 |  | 440 | EC50 [6]: 650 nM; EC50 [7]: 440 nM |
| B2 |  | 2910 |  |
| XHWSHXWXPX (as printed: DO3A10CM-Dafe4-His-Trp-Ser-His-Darg-Trp-Bpa4-Pro-azaGly-NH2) [BRU-2810] | 980 | 980 |  |
| XHWSHXWXPX (as printed: DO3A10CM-Sar-His-Trp-Ser-His-Darg-Trp-Dip-Pro-azaGly-NH2) [BRU-2721] | 4550 | 4550 |  |
| XHWSHXWXPX (N-terminal DO3A10CM; Damfe4 at 1; Darg at 6; Bpa4 at 8; azaGly-NH2 at 10) [BRU-2757] | 260 | 260 | EC50 [7]: 260 nM |
| {DO3A10CM″}-[Sar][His(1-Me)]WSH[dR]W[Bpa]P[azaGly]-NH2 [BRU-2741] | 2990 | 2990 |  |
| B3 |  | 3690 |  |
| XFWSHXWXPX (as printed: DO3A10CM-Sar-Phe-Trp-Ser-His-Darg-Trp-Bpa4-Pro-azaGly-NH2) [BRU-2738] |  | 1220 |  |
| XHWSHXWXPX (as printed: DO3A10CM-Sar-His-Trp-Ser-His-Darg-Trp-Thy-Pro-azaGly-NH2) [BRU-2823] | 1610 | 1610 |  |
| DO3A10CM-G[Hpgly]HWSH[dR]W[Bpa]P[azaGly]-NH2 (reading uncertain) [BRU-2797] | 450 | 450 | EC50 [7]: 450 nM |
| DO3A10CM-G[d1Nal]HWSH[dR]W[Bpa4]P[azaGly]-NH2 (reading uncertain; also: printed as DO3A10CM-Gly-Dnal1-His-Trp-Ser-His-Darg-Trp-Bpa4-Pro-azaGly-NH2) [BRU-2766] | 620 | 620 | EC50 [6]: 650 nM |
| XHWSHXWXPX (as printed: DO3A10CM-Dphe-His-Trp-Ser-His-Darg-Trp-Bpa4-Pro-azaGly-NH2) [BRU-2894] | 2000 | 2000 |  |
